# Like-named read-outs stand apart in the source and are kept apart here. No end group written: not given here. MBP = not defined here
# Assays:
# [1] = target: full-length human CRM1(E571K) (human) (UniProt O14980); test: fluorescence polarisation
# [2] = target: CRM1(E571K) (Homo sapiens, UniProt O14980, E571K); format: binding; details: for Kd,E571K/Kd,WT: ratio of Kds from differential photobleaching assays
# [3] = target: full-length human CRM1 (WT) (Homo sapiens, UniProt O14980); format: binding; details: from photobleaching Kds
# Chain of full-length human CRM1 (WT) (O14980 whole entry, other chains not shown): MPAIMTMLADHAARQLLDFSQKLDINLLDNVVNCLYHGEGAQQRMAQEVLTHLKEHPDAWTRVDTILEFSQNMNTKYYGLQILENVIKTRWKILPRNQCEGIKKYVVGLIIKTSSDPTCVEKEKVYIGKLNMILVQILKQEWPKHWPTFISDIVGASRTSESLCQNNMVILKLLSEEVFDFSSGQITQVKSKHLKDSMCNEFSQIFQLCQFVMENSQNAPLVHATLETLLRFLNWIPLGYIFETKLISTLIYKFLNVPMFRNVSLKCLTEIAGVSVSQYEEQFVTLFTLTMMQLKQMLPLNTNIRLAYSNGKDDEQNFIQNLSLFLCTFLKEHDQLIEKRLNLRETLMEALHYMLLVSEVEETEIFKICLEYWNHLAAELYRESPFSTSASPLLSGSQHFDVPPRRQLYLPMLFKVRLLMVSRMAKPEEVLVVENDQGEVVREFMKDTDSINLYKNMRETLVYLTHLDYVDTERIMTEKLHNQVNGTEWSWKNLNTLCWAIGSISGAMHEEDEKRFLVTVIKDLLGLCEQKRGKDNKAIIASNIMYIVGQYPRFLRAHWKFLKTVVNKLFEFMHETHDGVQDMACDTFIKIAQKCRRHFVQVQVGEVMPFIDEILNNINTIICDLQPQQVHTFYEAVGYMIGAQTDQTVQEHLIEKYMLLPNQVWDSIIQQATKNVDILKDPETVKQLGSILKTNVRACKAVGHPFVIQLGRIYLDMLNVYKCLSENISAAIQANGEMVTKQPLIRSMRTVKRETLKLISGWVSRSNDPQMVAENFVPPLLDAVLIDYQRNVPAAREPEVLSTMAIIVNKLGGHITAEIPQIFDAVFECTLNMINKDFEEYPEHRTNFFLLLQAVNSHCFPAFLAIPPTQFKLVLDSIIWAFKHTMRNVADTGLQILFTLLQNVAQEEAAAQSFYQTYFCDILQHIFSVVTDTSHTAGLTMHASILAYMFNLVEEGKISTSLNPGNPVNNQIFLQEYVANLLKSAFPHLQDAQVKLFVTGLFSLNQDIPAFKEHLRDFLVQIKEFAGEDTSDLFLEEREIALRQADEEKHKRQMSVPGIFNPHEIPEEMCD
# [4] = tested on: HEK 293 cells; test: Immunostaining and confocal microscopy of endogenous RPS2 with and without LMB; format: cell-based, human; details: anti-RPS2 immunostaining, presence vs absence of LMB
# [5] = target: full-length human CRM1(E571K) (human) (UniProt O14980); test: differential photobleaching
# [6] = target: T1, full-length human CRM1(E571K) (human, UniProt O14980 1-1071, E571K); test: differential photobleaching
# T1 sequence (O14980 whole entry E571K): as the sequence (O14980 whole entry, other chains not shown) above, with E571K counted along it
# [7] = target: T2, full-length human CRM1 (wild type) (human, UniProt O14980 1-1071); test: differential photobleaching
# T2 sequence (O14980 whole entry): as the sequence (O14980 whole entry, other chains not shown) above
# [8] = target: T2, full-length human CRM1 (wild type); test: differential photobleaching; remark: listed apart in the source
# [9] = target: T1, full-length human CRM1(E571K)
# [10] = target: T2, full-length human CRM1 (wild type)
# Chain of CRM1(E571K) (O14980 whole entry E571K, other chains not shown): as the sequence (O14980 whole entry, other chains not shown) above, with E571K counted along it
# Chain of full-length human CRM1(E571K) (human) (O14980 whole entry E571K): as the sequence (O14980 whole entry, other chains not shown) above, with E571K counted along it
Molecule,"Kd,E571K/Kd,WT [2]",Kd [6],further results
MBP-RPS2^NES (putative NES of 40S ribosomal protein S2) (peptide),,,fold weaker than to WT CRM1 [1]: 16 fold
SSLQELVQQFEALPGDLV [X11L2^NES],0.87,,
Paxillin^NES(K277A) ({MBP}-RELDELMASLSDFAFMA; reading uncertain),2.1,,
LQLPPLERLTLDC [HIV Rev^NES],2.3,,
REELWKKLEELKLKK [PP2A B56α^NES],8.6,,weaker binding to CRM1(E571K) than to WT CRM1 ([2]; from photobleaching Kds): 4–10 fold
RELDELMASLSDFKFMA [Paxillin^NES],4.6,,weaker binding to CRM1(E571K) than to WT CRM1 ([2]; from photobleaching Kds): 4–10 fold
RTFDMHSLESSIDIMR [Cpeb4^NES],3.2,,
Mek1^NES(E41A) ({MBP}-TNLEALQKKLEELALDEQ; reading uncertain),,,tighter binding to WT CRM1 than the WT Mek1^NES [3]: 14 fold
RSFEMTEFNQALEEIKG [hRio2^NES],0.79,,
CCC(=C/[C@H](C)C/C=C/C(C)=C/[C@@H](C)C(=O)[C@@H](C)[C@H](O)[C@@H](C)C/C(C)=C/C(=O)O)/C=C/[C@@H]1OC(=O)C=C[C@@H]1C [leptomycin B],,,subcellular localization of endogenous RPS2 upon CRM1 inhibition [4]: not affected
MBP-FMRP1b^NES (peptide),,,Kd [5]: 9 µM
EQMVKELQEIRLEPQ [Iκβα^NES],0.95,,
SLVLLPFDDLKISG [Iκβε^NES],3.3,,
YERVVSPGIDLSGLTLQ [Smad4^NES],2.8,,
SVPEVEALLARLRAL [mDia2^NES],0.88,,
SVEEVEAGLKGLKVDQQVK [eIF4E-transporter (4E-T^NES)],10,,
TNLEALQKKLEELELDEQ [Mek1^NES],0.071,,tighter (stronger) binding to CRM1(E571K) than to WT CRM1 ([2]; from photobleaching Kds): 14 fold
LKEVDQLRALERLQID [FMRP1b^NES],3.0,,
NFEILMKLKESLELMELVP [P73^NES],0.75,,

Molecule,"Kd,E571K/Kd,WT [2]",Kd [6],further results
MEELSQALASSFSVSQDLNS [Snupn1^NES],1.8,,
RSFEMTEFNQALEEIKG [MBP-hRio2^NES],,1.9 µM,
{MBP}-SLVLLPFDDLKISG (reading uncertain) [MBP-Iκβε^NES],,12 µM,Kd [7]: 3.6 µM
RELDELMASLSDFKFMA [MBP-Paxillin^NES],,3.1 µM,
{MBP}-EQMVKELQEIRLEPQ (reading uncertain) [MBP-Iκβα^NES],,21 µM,Kd [7]: 22 µM
LQLPPLERLTLDC [MBP-HIV Rev^NES],,4.1 µM,
SVPEVEALLARLRAL [MBP-mDia2^NES],,1.5 µM,
NFEILMKLKESLELMELVP [MBP-P73^NES],,1.5 µM,
MEELSQALASSFSVSQDLNS [MBP-Snupn1^NES],,21 µM,
PLPVLGLGGLRISS [MBP-Dusp6^NES],,14 µM,
TNLEALQKKLEELELDEQ [MBP-Mek1^NES],,0.005 µM,binding result [8]: binds
TNLEALQKKLEELALDEQ [MBP-Mek1^NES(E41A)],,,Kd [9]: 0.006 µM; Kd [10]: 0.005 µM
NSNELALKLAGLDIDE [MBP-PKI^NESDE],,,fold tighter than to WT CRM1 [9]: 3 fold
RTFDMHSLESSIDIMR [MBP-Cpeb4^NES],,1.9 µM,
SSLQELVQQFEALPGDLV [MBP-X11L2^NES],,1.3 µM,
SVEEVEAGLKGLKVDQQVK [MBP-eIF4E-transporter NES (4E-T^NES)],,14 µM,Kd [7]: 1.4 µM
YERVVSPGIDLSGLTLQ [MBP-Smad4^NES],,13 µM,binding result [8]: binds
REELWKKLEELKLKK [MBP-PP2A B56α^NES],,38 µM,Kd [7]: 4.4 µM
